We go through three substances from patent US20220049236A1.

Experiment [1] addresses Heat shock 70 kDa protein 6/7 (human) (UniProt P17066). As to the kind of experiment: IP from HDF supernatant, LFQ mass spectrometry; ratio against Fc control.
For experiment [2], the target named is Nidogen-1 (human) (UniProt P14543). The experiment is described as above.
Experiment [3] addresses HSP70 (UniProt P0DMV8). As to the kind of experiment: ELISA, plate coated with HSP70. A general note: An ELISA detects its analyte on a solid surface through an enzyme-linked reagent.
Experiment [4] has as its target Heat shock 70 kDa protein 6/7 (human) (UniProt P17066). As to the kind of experiment: IP from HDF supernatant, LFQ mass spectrometry; ratio against the glycosylation mutant.
Experiment [5] has as its target Nidogen-1 (human) (UniProt P14543). The experiment is described as above.
For experiment [6], the target named is HSP70 (UniProt P0DMV8). As to the kind of experiment: ELISA, plate coated with HSP70, bound protein detected with peroxidase-conjugated anti-human antibody.
Experiment [7] concerns the target LPD displayed on the surface of yeast cells (EBY100) (Saccharomyces cerevisiae; human) (UniProt P32781). As to the kind of experiment: flow cytometry of yeast cells displaying LPD, stained with Atto 633-labelled HSP70; the sample histogram is shifted to the right of the control histogram, whose Median RFU is printed as 26. For orientation: Flow cytometry measures light scatter and fluorescence of single cells or particles in a stream.

Heat shock 70 kDa protein 6/7 (human), sequence (P17066 whole entry): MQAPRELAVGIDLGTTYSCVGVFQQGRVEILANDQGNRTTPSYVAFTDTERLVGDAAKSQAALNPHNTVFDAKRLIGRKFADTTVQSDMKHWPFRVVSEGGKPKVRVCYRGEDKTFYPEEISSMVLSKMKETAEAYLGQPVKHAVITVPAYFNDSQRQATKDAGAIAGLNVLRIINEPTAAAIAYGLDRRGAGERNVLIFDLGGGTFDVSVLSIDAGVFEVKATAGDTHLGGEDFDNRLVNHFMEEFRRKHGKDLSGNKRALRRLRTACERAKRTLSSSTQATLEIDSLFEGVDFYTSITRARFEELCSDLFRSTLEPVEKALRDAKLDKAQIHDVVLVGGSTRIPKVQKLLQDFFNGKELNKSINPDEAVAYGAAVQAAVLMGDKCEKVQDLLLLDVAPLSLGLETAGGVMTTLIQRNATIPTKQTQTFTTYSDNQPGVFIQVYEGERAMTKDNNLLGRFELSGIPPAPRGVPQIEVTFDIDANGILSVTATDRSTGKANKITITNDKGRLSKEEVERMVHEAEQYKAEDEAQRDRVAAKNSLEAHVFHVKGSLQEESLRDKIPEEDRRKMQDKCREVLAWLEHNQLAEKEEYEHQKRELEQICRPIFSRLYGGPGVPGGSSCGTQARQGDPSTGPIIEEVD
Nidogen-1 (human), sequence (P14543 29-1247 limits assumed): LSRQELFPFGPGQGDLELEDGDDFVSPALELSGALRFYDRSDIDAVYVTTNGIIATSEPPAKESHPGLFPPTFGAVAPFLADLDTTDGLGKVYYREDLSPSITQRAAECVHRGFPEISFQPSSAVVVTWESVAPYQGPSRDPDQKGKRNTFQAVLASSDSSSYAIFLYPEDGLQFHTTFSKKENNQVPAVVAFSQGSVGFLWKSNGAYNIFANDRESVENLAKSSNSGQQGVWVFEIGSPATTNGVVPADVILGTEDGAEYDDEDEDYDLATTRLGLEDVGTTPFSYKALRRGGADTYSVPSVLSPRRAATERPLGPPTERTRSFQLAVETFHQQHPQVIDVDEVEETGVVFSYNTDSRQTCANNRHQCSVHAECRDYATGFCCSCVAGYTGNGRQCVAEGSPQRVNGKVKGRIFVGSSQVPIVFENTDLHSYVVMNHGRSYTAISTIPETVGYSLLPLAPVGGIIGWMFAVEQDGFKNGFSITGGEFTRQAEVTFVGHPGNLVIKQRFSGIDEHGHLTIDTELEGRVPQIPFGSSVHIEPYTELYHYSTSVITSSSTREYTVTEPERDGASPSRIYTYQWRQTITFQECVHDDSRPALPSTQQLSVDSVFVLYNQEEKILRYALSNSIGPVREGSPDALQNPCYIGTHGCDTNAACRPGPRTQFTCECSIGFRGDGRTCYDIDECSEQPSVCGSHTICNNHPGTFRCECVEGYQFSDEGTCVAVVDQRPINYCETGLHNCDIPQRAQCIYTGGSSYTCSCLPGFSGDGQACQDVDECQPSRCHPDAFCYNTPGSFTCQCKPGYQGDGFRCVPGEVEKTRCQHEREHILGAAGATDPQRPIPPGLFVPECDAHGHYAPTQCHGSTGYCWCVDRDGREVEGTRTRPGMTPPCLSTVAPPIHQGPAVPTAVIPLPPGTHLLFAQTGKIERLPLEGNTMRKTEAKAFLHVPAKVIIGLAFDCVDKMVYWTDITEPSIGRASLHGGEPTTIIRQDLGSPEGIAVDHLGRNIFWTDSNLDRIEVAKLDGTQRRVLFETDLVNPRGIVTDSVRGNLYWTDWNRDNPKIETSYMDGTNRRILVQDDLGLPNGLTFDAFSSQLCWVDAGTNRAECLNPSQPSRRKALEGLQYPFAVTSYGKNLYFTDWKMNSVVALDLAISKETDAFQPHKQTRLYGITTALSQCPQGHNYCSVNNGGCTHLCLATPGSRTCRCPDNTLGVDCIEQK
HSP70, sequence (P0DMV8 whole entry): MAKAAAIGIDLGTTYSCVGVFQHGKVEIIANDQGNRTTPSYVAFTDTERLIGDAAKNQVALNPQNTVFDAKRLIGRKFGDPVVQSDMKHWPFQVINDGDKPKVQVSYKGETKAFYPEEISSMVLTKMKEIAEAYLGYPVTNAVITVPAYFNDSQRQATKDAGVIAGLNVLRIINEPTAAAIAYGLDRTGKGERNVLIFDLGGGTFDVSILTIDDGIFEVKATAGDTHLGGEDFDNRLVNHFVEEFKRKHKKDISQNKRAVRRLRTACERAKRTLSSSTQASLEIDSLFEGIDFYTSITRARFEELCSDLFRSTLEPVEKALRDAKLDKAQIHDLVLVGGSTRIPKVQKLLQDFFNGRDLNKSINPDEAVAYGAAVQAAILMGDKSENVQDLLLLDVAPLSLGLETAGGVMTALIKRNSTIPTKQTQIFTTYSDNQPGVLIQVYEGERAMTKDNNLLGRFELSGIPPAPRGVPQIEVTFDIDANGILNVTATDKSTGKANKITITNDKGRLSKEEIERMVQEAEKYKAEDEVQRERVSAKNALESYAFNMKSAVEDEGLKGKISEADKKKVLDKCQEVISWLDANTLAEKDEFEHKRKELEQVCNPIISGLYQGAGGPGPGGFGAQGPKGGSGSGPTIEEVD

As to “Fc-LPD N346, 362, 409Q (from UniProt P28300 22-169) (Fc fusion)”, the Ratio Fc-LPD-N346, 409, 456Q:Fc in experiment [1] turned out to be 194; in experiment [2] it was 13.7.
On to “Fc-LPD (lysyl oxidase prodomain fused to Fc antibody fragment) (Fc fusion)”, for which the EC50 in experiment [3] and in experiment [6] was 41 nM in each case. Also, the Ratio Fc-LPD:Fc in experiment [1] is 78.4; in experiment [2], 9. For the same substance, the figures for the Ratio Fc-LPD:Fc-LPDN346, 409, 456Q in experiment [4] and in experiment [5] were 0.4 and 0.7, respectively.
As for HSP70 (from UniProt P0DMV8 1-641), the Median RFU in experiment [7] amounted to 130 RFU.

A word on the EC50: it is the concentration that produces a half-maximal response. The low end stands for greater potency, the high end for weaker potency.
